Consider two substances from paper PMC5024704.

For test [1], the target named is SgcC FADH2-dependent monooxygenase (Streptomyces globisporus). Put plainly: SEC. (In gel filtration, larger molecules generally elute earlier.)
For test [2], the target named is SgcE6 flavin reductase (Streptomyces globisporus). Put plainly: SEC.

Broadly, the stoichiometry N is a count of units in the complex or per binding partner. In the case of “SgcC FADH2-dependent monooxygenase (enzyme)”, in test [1], the stoichiometry N came out at 4. For SgcE6 flavin reductase (enzyme), the stoichiometry N in test [2] came to 2.
